{"source": "the supplement of paper PMC5998384", "key": {"HeLa Kyoto [1]": {"tested_on": "HeLa Kyoto", "test": "solubility in G1/S (NP-40 vs SDS abundance) (log2 ratio); higher = more soluble", "details": "cell cycle stage: G1/S"}, "HeLa Kyoto [2]": {"tested_on": "HeLa Kyoto", "test": "solubility change mitosis vs G1/S (difference of NP-40 vs SDS log2 ratios) (log2 ratio difference); higher = more soluble in mitosis"}, "HeLa Kyoto [3]": {"tested_on": "HeLa Kyoto", "test": "melting temperature (median over replicates), in situ; higher = more thermally stable"}, "HeLa Kyoto [4]": {"tested_on": "HeLa Kyoto", "test": "thermal stability score vs G1/S (z-score of summed log2 fold changes over temperatures); higher = more thermally stable than in G1/S"}, "[5]": {"details": "cell cycle stage: early G1 (4.5 h after nocodazole release)"}}}
{"substance": "SNRNP200", "values": [{"measurement": "solubility in G1/S (log2)", "setting": "HeLa Kyoto [1]", "value": -0.756}, {"measurement": "solubility change mitosis (log2)", "setting": "HeLa Kyoto [2]", "value": 0.171}, {"measurement": "melting temperature", "setting": "HeLa Kyoto [3]; cell cycle stage: G1/S", "value": 50, "unit": "°C"}, {"measurement": "melting temperature", "setting": "HeLa Kyoto [3]; cell cycle stage: mitosis", "value": 50.8, "unit": "°C"}, {"measurement": "thermal stability score", "setting": "HeLa Kyoto [4]; [5]", "value": 2.93}, {"measurement": "thermal stability score", "setting": "HeLa Kyoto [4]; cell cycle stage: mitosis", "value": 4.86}]}
{"substance": "MADLAECNIKVMCRFRPLNESEVNRGDKYIAKFQGEDTVVIASKPYAFDRVFQSSTSQEQVYNDCAKKIVKDVLEGYNGTIFAYGQTSSGKTHTMEGKLHDPEGMGIIPRIVQDIFNYIYSMDENLEFHIKVSYFEIYLDKIRDLLDVSKTNLSVHEDKNRVPYVKGCTERFVCSPDEVMDTIDEGKSNRHVAVTNMNEHSSRSHSIFLINVKQENTQTEQKLSGKLYLVDLAGSEKVSKTGAEGAVLDEAKNINKSLSALGNVISALAEGSTYVPYRDSKMTRILQDSLGGNCRTTIVICCSPSSYNESETKSTLLFGQRAKTIKNTVCVNVELTAEQWKKKYEKEKEKNKILRNTIQWLENELNRWRNGETVPIDEQFDKEKANLEAFTVDKDITLTNDKPATAIGVIGNFTDAERRKCEEEIAKLYKQLDDKDEEINQQSQLVEKLKTQMLDQEELLASTRRDQDNMQAELNRLQAENDASKEEVKEVLQALEELAVNYDQKSQEVEDKTKEYELLSDELNQKSATLASIDAELQKLKEMTNHQKKRAAEMMASLLKDLAEIGIAVGNNDVKQPEGTGMIDEEFTVARLYISKMKSEVKTMVKRCKQLESTQTESNKKMEENEKELAACQLRISQHEAKIKSLTEYLQNVEQKKRQLEESVDALSEELVQLRAQEKVHEMEKEHLNKVQTANEVKQAVEQQIQSHRETHQKQISSLRDEVEAKAKLITDLQDQNQKMMLEQERLRVEHEKLKATDQEKSRKLHELTVMQDRREQARQDLKGLEETVAKELQTLHNLRKLFVQDLATRVKKSAEIDSDDTGGSAAQKQKISFLENNLEQLTKVHKQLVRDNADLRCELPKLEKRLRATAERVKALESALKEAKENASRDRKRYQQEVDRIKEAVRSKNMARRGHSAQIAKPIRPGQHPAASPTHPSAIRGGGAFVQNSQPVAVRGGGGKQV [KIF5B]", "values": [{"measurement": "solubility in G1/S (log2)", "setting": "HeLa Kyoto [1]", "value": 0.108}, {"measurement": "solubility change mitosis (log2)", "setting": "HeLa Kyoto [2]", "value": -0.0355}, {"measurement": "melting temperature", "setting": "HeLa Kyoto [3]; cell cycle stage: G1/S", "value": 51.5, "unit": "°C"}, {"measurement": "melting temperature", "setting": "HeLa Kyoto [3]; cell cycle stage: mitosis", "value": 51.5, "unit": "°C"}, {"measurement": "thermal stability score", "setting": "HeLa Kyoto [4]; [5]", "value": 1.12}, {"measurement": "thermal stability score", "setting": "HeLa Kyoto [4]; cell cycle stage: mitosis", "value": 0.152}]}
{"substance": "MAGAQPGVHALQLEPPTVVETLRRGSKFIKWDEETSSRNLVTLRVDPNGFFLYWTGPNMEVDTLDISSIRDTRTGRYARLPKDPKIREVLGFGGPDARLEEKLMTVVSGPDPVNTVFLNFMAVQDDTAKVWSEELFKLAMNILAQNASRNTFLRKAYTKLKLQVNQDGRIPVKNILKMFSADKKRVETALESCGLKFNRSESIRPDEFSLEIFERFLNKLCLRPDIDKILLEIGAKGKPYLTLEQLMDFINQKQRDPRLNEVLYPPLRPSQARLLIEKYEPNQQFLERDQMSMEGFSRYLGGEENGILPLEALDLSTDMTQPLSAYFINSSHNTYLTAGQLAGTSSVEMYRQALLWGCRCVELDVWKGRPPEEEPFITHGFTMTTEVPLRDVLEAIAETAFKTSPYPVILSFENHVDSAKQQAKMAEYCRSIFGDALLIEPLDKYPLAPGVPLPSPQDLMGRILVKNKKRHRPSAGGPDSAGRKRPLEQSNSALSESSAATEPSSPQLGSPSSDSCPGLSNGEEVGLEKPSLEPQKSLGDEGLNRGPYVLGPADREDEEEDEEEEEQTDPKKPTTDEGTASSEVNATEEMSTLVNYIEPVKFKSFEAARKRNKCFEMSSFVETKAMEQLTKSPMEFVEYNKQQLSRIYPKGTRVDSSNYMPQLFWNVGCQLVALNFQTLDVAMQLNAGVFEYNGRSGYLLKPEFMRRPDKSFDPFTEVIVDGIVANALRVKVISGQFLSDRKVGIYVEVDMFGLPVDTRRKYRTRTSQGNSFNPVWDEEPFDFPKVVLPTLASLRIAAFEEGGKFVGHRILPVSAIRSGYHYVCLRNEANQPLCLPALLIYTEASDYIPDDHQDYAEALINPIKHVSLMDQRARQLAALIGESEAQAGQETCQDTQSQQLGSQPSSNPTPSPLDASPRRPPGPTTSPASTSLSSPGQRDDLIASILSEVAPTPLDELRGHKALVKLRSRQERDLRELRKKHQRKAVTLTRRLLDGLAQAQAEGRCRLRPGALGGAADVEDTKEGEDEAKRYQEFQNRQVQSLLELREAQVDAEAQRRLEHLRQALQRLREVVLDANTTQFKRLKEMNEREKKELQKILDRKRHNSISEAKMRDKHKKEAELTEINRRHITESVNSIRRLEEAQKQRHDRLVAGQQQVLQQLAEEEPKLLAQLAQECQEQRARLPQEIRRSLLGEMPEGLGDGPLVACASNGHAPGSSGHLSGADSESQEENTQL [PLCB3]", "values": [{"measurement": "solubility in G1/S (log2)", "setting": "HeLa Kyoto [1]", "value": 0.0201}, {"measurement": "solubility change mitosis (log2)", "setting": "HeLa Kyoto [2]", "value": 0.0123}, {"measurement": "melting temperature", "setting": "HeLa Kyoto [3]; cell cycle stage: G1/S", "value": 52.7, "unit": "°C"}, {"measurement": "melting temperature", "setting": "HeLa Kyoto [3]; cell cycle stage: mitosis", "value": 51.7, "unit": "°C"}, {"measurement": "thermal stability score", "setting": "HeLa Kyoto [4]; [5]", "value": 0.256}, {"measurement": "thermal stability score", "setting": "HeLa Kyoto [4]; cell cycle stage: mitosis", "value": -0.25}]}
{"substance": "MEAVAVAAAVGVLLLAGAGGAAGDEAREAAAVRALVARLLGPGPAADFSVSVERALAAKPGLDTYSLGGGGAARVRVRGSTGVAAAAGLHRYLRDFCGCHVAWSGSQLRLPRPLPAVPGELTEATPNRYRYYQNVCTQSYSFVWWDWARWEREIDWMALNGINLALAWSGQEAIWQRVYLALGLTQAEINEFFTGPAFLAWGRMGNLHTWDGPLPPSWHIKQLYLQHRVLDQMRSFGMTPVLPAFAGHVPEAVTRVFPQVNVTKMGSWGHFNCSYSCSFLLAPEDPIFPIIGSLFLRELIKEFGTDHIYGADTFNEMQPPSSEPSYLAAATTAVYEAMTAVDTEAVWLLQGWLFQHQPQFWGPAQIRAVLGAVPRGRLLVLDLFAESQPVYTRTASFQGQPFIWCMLHNFGGNHGLFGALEAVNGGPEAARLFPNSTMVGTGMAPEGISQNEVVYSLMAELGWRKDPVPDLAAWVTSFAARRYGVSHPDAGAAWRLLLRSVYNCSGEACRGHNRSPLVRRPSLQMNTSIWYNRSDVFEAWRLLLTSAPSLATSPAFRYDLLDLTRQAVQELVSLYYEEARSAYLSKELASLLRAGGVLAYELLPALDEVLASDSRFLLGSWLEQARAAAVSEAEADFYEQNSRYQLTLWGPEGNILDYANKQLAGLVANYYTPRWRLFLEALVDSVAQGIPFQQHQFDKNVFQLEQAFVLSKQRYPSQPRGDTVDLAKKIFLKYYPRWVAGSW [NAGLU]", "values": [{"measurement": "solubility in G1/S (log2)", "setting": "HeLa Kyoto [1]", "value": 0.341}, {"measurement": "solubility change mitosis (log2)", "setting": "HeLa Kyoto [2]", "value": -0.238}, {"measurement": "melting temperature", "setting": "HeLa Kyoto [3]; cell cycle stage: G1/S", "value": 55.7, "unit": "°C"}, {"measurement": "melting temperature", "setting": "HeLa Kyoto [3]; cell cycle stage: mitosis", "value": 55.5, "unit": "°C"}, {"measurement": "thermal stability score", "setting": "HeLa Kyoto [4]; [5]", "value": -2.49}, {"measurement": "thermal stability score", "setting": "HeLa Kyoto [4]; cell cycle stage: mitosis", "value": -1.73}]}
